Patent US20260000597A1 (priority 2018, published 2026)
Where two headings read alike, the source gives them in different places. Non-standard residues stand in square brackets, D forms with d. Residues, ends and D or L forms follow the SMILES beside them. No end group written: not given here. *: point of attachment. Palmitoyl = CCCCCCCCCCCCCCCC(=O)*; Dab = NCC[C@H](N)C(=O)O; NHBn = c1ccc(CN*)cc1; βAla = NCCC(=O)O

Tests used:
TE671 cells = system: TE671 cells
Procedure: To evaluate the toxicity of Spep-1 and Spep-2, WST Assay was performed on TE671 cells.

[1] = target: Acetylcholine receptor proteins (AchR) (Homo sapiens, UniProt P02708); assay type: binding; conditions: for AchR binding affinity compared with Spep-2 / AchR binding affinity (resonance units: Ru) among representative peptides / AchR binding affinity: SPR; for AchR binding affinity (resonance units: Ru) among representative peptides: peptides 3 μM; for AchR binding affinity: 10 μM peptides, compared with Synake
Sequence of Acetylcholine receptor proteins (AchR) (P02708 21-457): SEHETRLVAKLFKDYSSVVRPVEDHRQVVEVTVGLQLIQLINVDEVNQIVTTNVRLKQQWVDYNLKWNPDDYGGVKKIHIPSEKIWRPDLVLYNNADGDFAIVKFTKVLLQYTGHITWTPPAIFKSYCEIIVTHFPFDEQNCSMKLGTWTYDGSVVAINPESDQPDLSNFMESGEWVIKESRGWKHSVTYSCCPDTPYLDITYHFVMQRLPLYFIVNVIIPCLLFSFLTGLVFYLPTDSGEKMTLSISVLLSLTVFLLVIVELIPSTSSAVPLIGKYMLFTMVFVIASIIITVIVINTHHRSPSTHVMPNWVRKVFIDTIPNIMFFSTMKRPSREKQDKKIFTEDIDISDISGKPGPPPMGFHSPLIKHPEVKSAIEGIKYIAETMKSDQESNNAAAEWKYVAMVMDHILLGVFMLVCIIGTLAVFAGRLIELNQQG
Procedure: Spep-1 to Spep-11 selected in Example 1 were synthesized, and the AchR binding affinity was compared thereamong using a surface plasmon resonance (SPR) analyzer (Biacore3000, Biacore A, Sweden). […]
The treatment concentrations of Spep-2 were 0.12 to 1 μM, and the dissociation constant was compared while Synake was used as a positive control.

AchR [2] = target: T1, AchR (Homo sapiens, UniProt P02708); test: cell-based; assay type: cell-based; set-up: endogenous in cells; host or cells: TE671; conditions: nicotine 400 μM
Target sequence in this assay (P02708 21-457): as above
Target sequence in this assay (Q07001 22-517, further chain): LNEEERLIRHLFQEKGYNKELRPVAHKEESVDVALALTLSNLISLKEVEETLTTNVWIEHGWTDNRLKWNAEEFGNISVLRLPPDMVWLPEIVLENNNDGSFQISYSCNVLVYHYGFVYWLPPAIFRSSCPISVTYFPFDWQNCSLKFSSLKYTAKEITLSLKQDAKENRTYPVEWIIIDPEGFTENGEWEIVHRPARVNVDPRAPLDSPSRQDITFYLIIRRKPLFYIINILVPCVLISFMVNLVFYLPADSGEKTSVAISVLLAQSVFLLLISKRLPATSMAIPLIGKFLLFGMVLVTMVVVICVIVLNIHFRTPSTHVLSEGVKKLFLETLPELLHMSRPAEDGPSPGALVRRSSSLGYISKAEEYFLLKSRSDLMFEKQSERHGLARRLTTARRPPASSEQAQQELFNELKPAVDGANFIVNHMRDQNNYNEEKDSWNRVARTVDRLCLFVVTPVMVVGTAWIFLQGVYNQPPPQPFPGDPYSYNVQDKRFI
Target sequence in this assay (P07510 23-517, further chain): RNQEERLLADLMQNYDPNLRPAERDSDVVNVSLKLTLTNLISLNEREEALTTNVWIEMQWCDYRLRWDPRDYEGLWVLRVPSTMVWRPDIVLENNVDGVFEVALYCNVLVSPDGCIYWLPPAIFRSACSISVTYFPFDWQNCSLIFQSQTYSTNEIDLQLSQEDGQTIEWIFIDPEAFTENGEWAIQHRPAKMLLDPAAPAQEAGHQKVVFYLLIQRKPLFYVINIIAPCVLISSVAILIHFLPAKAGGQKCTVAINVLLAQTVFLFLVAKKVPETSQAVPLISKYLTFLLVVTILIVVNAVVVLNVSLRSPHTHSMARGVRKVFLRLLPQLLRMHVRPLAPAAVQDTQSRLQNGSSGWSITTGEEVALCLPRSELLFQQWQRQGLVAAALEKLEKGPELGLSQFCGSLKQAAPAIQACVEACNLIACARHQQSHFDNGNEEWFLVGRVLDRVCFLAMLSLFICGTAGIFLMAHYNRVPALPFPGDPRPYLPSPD
Target sequence in this assay (P11230 24-501, further chain): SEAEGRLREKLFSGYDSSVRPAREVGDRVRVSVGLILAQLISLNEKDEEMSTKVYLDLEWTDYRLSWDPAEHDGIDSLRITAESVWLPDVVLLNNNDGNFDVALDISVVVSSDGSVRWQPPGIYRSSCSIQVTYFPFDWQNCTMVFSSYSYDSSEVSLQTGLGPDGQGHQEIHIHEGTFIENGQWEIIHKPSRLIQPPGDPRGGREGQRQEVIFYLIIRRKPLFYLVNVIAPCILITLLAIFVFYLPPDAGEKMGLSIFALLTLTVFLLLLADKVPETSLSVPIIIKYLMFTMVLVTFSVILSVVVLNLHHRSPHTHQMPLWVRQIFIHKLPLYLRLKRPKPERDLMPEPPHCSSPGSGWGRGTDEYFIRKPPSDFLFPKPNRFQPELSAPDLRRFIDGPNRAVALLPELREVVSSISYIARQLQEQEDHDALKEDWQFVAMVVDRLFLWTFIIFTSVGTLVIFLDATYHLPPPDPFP

AchR [3] = target: T1, AchR; test: ELISA of screened peptide phages on AchR versus streptavidin (OD450); assay type: binding; conditions: absorbance at 450 nm
Summary of the method: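 Phage supernatants from 4th–5th round plaques, in 2% BSA, applied 1 h at 30 °C to wells coated with 5 μg/ml AchR or streptavidin. Bound phage detected with HRP anti-M13 and TMB at OD450; value given as AchR/streptavidin signal ratio.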
Target sequence in this assay (P02708 21-457): as the sequence (P02708 21-457) above

[4] = ELISA of selected 14-mer (L3) peptide phages on AchR, Spep-2 positive control
[5] = phage ELISA, 5 μg/ml AchR, 4th and 5th round biopanning phages

Compound | OD (AchR [3]; [5]) | other results
CCCCCCCCCCCCCCCC(=O)N[C@@H](Cc1c[nH]c2ccccc12)C(=O)N[C@H](C(=O)N[C@@H](Cc1c[nH]c2ccccc12)C(=O)N[C@@H](CCCCN)C(=O)NCC(=O)N[C@@H](CCCNC(=N)N)C(=O)N[C@@H](CCCCN)C(=O)N[C@@H](CO)C(=O)N[C@@H](CC(C)C)C(=O)N[C@@H](CC(C)C)C(=O)N[C@@H](CCCNC(=N)N)C(=O)O)[C@@H](C)O [Palmitoyl-Spep-2] (Palmitoyl-WTWKGRKSLLR-OH) |  | cytotoxicity (WST assay) (TE671 cells): no cytotoxicity
NCCC(=O)N1CCC[C@H]1C(=O)N[C@@H](CCN)C(=O)NCc1ccccc1 [Synake, reference compound] (H-[βAla]-Pro-[Dab]-NHBn; N-terminus and C-terminus assumed) |  | toxicity (WST assay) (TE671 cells; TE671 cells, treatment concentration of 100 μM): no toxicity
GRKSLLR [Spep-2-ND4] |  | AchR binding affinity compared with Spep-2 [1]: significantly reduced binding affinity
L2-110: 11-mer optimized peptide of the L2 library (Table 11, not shown here) (RYAKHRKRQTR; AchR binding peptide) [Peptide L2-110] |  | AchR inhibition (AchR [2]; peptide 5 μM): could not inhibit; OD (AchR [3]; ELISA of selected 11-mer (L2) peptide phages on AchR, Spep-2 positive control): 0.831; AchR binding affinity (resonance units: Ru) among representative peptides [1]: higher binding affinity to AchR compared with the 8-mer L1-13
L3-27: 14-mer optimized peptide of the L3 library (Table 12, not shown here) (RARKKRKSLLRRQV; AchR binding peptide) [Peptide L3-27] |  | AchR inhibition (AchR [2]; peptide 1 μM): 50%; AchR inhibition (AchR [2]; peptide 5 μM): could not inhibit; OD (AchR [3]; [4]): 0.83; AchR binding affinity (resonance units: Ru) among representative peptides [1]: highest binding affinity
L3-28: 14-mer optimized peptide of the L3 library (Table 12, not shown here) (PNGKVRKRIRRRYF; AchR binding peptide) [Peptide L3-28] |  | AchR inhibition (AchR [2]; peptide 2.5 μM): could not inhibit; OD (AchR [3]; [4]): 0.803; AchR binding affinity (resonance units: Ru) among representative peptides [1]: highest binding affinity
L3-37: 14-mer optimized peptide of the L3 library (Table 12, not shown here) (SNVKRKRGRCKPYR; AchR binding peptide) [Peptide L3-37] |  | OD (AchR [3]; [4]): 0.69; AchR binding affinity (resonance units: Ru) among representative peptides [1]: highest binding affinity
RAKKCYHK [Peptide L1-50] | 0.583 | 
RAKKIMFR [Peptide L1-177] | 0.484 | 
RAKRMCCK [Peptide L1-8] | 0.653 | 
RARKDAFK [Peptide L1-11] | 0.703 | 
RARKESHK [Peptide L1-166] | 0.649 | 
RARKLHNR [Peptide L1-103] | 0.55 | 
RCKKNPEK [Peptide L1-66] | 0.605 | 
RCKRCDNK [Peptide L1-120] | 0.388 | 
RCKRFVGK [Peptide L1-173] | 0.63 | 
RCRKDTAR [Peptide L1-142] | 0.469 | 
RDRKFVQK [Peptide L1-154] | 0.633 | 
RDRKIHDK [Peptide L1-23] | 0.712 | 
RDRKNPVR [Peptide L1-124] | 0.428 | 
REKKQEVK [Peptide L1-150] | 0.457 | 
REKKYAYK [Peptide L1-181] | 0.589 | 
REKRYMAR [Peptide L1-91] | 0.826 | 
RFKRLCMK [Peptide L1-15] | 0.67 | 
RFKRMVWR [Peptide L1-99] | 0.543 | 
RFRKMIPK [Peptide L1-115] | 0.451 | 

Compound | OD (AchR [3]; [5]) | other results
RFRKPTDR [Peptide L1-127] | 0.412 | 
RFRRGVRR [Peptide L1-13] | 0.73 | 
RFRRNFHK [Peptide L1-196] | 0.583 | 
RGKKAVRK [Peptide L1-20] | 0.619 | 
RGKKPWWR [Peptide L1-104] | 0.46 | 
RGKKQLSK [Peptide L1-121] | 0.354 | 
RGKRGCER [Peptide L1-54] | 0.569 | 
RGKRHWHR [Peptide L1-179] | 0.633 | 
RGKRQLGR [Peptide L1-3] | 0.649 | 
RGRKKCGK [Peptide L1-42] | 0.695 | 
RGRKPIWK [Peptide L1-108] | 0.535 | 
RGRRGTMR [Peptide L1-93] | 0.616 | 
RGRRWFVK [Peptide L1-28] | 0.656 | 
RHKKFIEK [Peptide L1-59] | 0.479 | 
RHKKSPWK [Peptide L1-5] | 0.657 | 
RHKRMLWR [Peptide L1-131] | 0.505 | 
RHKRQQDK [Peptide L1-186] | 0.474 | 
RHKRWEVR [Peptide L1-195] | 0.642 | 
RHKRWSGR [Peptide L1-153] | 0.625 | 
RHRKYVDK [Peptide L1-152] | 0.484 | 
RHRRANFR [Peptide L1-147] | 0.415 | 
RIKRDYCK [Peptide L1-164] | 0.616 | 
RIKRNNCK [Peptide L1-130] | 0.368 | 
RIRKITWR [Peptide L1-194] | 0.636 | 
RIRRAHDR [Peptide L1-165] | 0.644 | 
RIRRGSVR [Peptide L1-57] | 0.408 | 

Compound | OD (AchR [3]; [5]) | other results
RIRRHMYR [Peptide L1-83] | 0.621 | 
RIRRVSQR [Peptide L1-60] | 0.484 | 
RIRRWWVR [Peptide L1-82] | 0.596 | 
RKSLLR [Spep-2-ND5, RKSLLR] |  | binding affinity reduced compared with Spep-2 (11-mer) [1]: 48 times; AchR binding affinity compared with Spep-2 [1]: significantly reduced binding affinity
RLKKHCGK [Peptide L1-187] | 0.668 | 
RLKRAPGR [Peptide L1-33] | 0.529 | 
RLKRGQFK [Peptide L1-85] | 0.57 | 
RLRKSLGK [Peptide L1-95] | 0.535 | 
RLRRRYRR [Peptide L1-45] | 0.597 | 
RLRRWCVK [Peptide L1-30] | 0.605 | 
RMKKFHTR [Peptide L1-128] | 0.301 | 
RNKRDENK [Peptide L1-29] | 0.646 | 
RNKRMDGK [Peptide L1-157] | 0.585 | 
RNRKIPLK [Peptide L1-44] | 0.59 | 
RPKKHQER [Peptide L1-158] | 0.605 | 
RPKKWMQK [Peptide L1-61] | 0.625 | 
RPKRNWAK [Peptide L1-96] | 0.494 | 
RPKRSPSK [Peptide L1-117] | 0.508 | 
RPRRGHQK [Peptide L1-24] | 0.742 | 
RPRRSLDR [Peptide L1-17] | 0.653 | 
RPRRTHIK [Peptide L1-6] | 0.652 | 
RQKKDFLK [Peptide L1-107] | 0.534 | 
RQKKDNQK [Peptide L1-26] | 0.647 | 
RQKKPWVK [Peptide L1-31] | 0.604 | 
RQRKSMQR [Peptide L1-27] | 0.662 | 
RQRRMTPR [Peptide L1-156] | 0.589 | 

Compound | OD (AchR [3]; [5]) | other results
RQRRNDMK [Peptide L1-9] | 0.639 | 
RRRRRRRRRRR [Peptide L2-201, reference compound] | 0.307 | 
RSKKINNK [Peptide L1-71] | 0.618 | 
RSKKSLYR [Peptide L1-53] | 0.78 | 
RSKRMNGK [Peptide L1-58] | 0.472 | 
RSRRCPVK [Peptide L1-119] | 0.463 | 
RSRRGIGK [Peptide L1-192] | 0.581 | 
RTKKAYVK [Peptide L1-200] | 0.621 | 
RTKKENVK [Peptide L1-180] | 0.618 | 
RTKRWQLK [Peptide L1-94] | 0.496 | 
RTRKCVLK [Peptide L1-89] | 0.551 | 
RVKKAETR [Peptide L1-92] | 0.581 | 
RVKRFVPK [Peptide L1-112] | 0.431 | 
RVRRDGHR [Peptide L1-49] | 0.504 | 
RVRRSWIR [Peptide L1-72] | 0.616 | 
RWKKNINK [Peptide L1-80] | 0.631 | 
RWKRSEQR [Peptide L1-32] | 0.607 | 
RWRRSVIK [Peptide L1-106] | 0.417 | 
RYKKQQYK [Peptide L1-167] | 0.581 | 
RYKKVPAK [Peptide L1-118] | 0.471 | 
RYRRWFYR [Peptide L1-155] | 0.618 | 
WTWKGKGTLNR [Spep-1, WTWKGKGTLNR] |  | toxicity (WST assay) (TE671 cells): no toxicity
WTWKGNKQVKF [Spep-10] |  | AchR binding affinity [1]: high AchR binding affinity compared with Synake
WTWKGRDKLQM [Spep-4] |  | AchR binding affinity [1]: high AchR binding affinity compared with Synake
